First the molecules themselves.
T1: EsCas13d, nuclease-dead (Eubacterium siraeum, UniProt B0MS50, R295A;H300A;R849A;H854A)
T1 sequence: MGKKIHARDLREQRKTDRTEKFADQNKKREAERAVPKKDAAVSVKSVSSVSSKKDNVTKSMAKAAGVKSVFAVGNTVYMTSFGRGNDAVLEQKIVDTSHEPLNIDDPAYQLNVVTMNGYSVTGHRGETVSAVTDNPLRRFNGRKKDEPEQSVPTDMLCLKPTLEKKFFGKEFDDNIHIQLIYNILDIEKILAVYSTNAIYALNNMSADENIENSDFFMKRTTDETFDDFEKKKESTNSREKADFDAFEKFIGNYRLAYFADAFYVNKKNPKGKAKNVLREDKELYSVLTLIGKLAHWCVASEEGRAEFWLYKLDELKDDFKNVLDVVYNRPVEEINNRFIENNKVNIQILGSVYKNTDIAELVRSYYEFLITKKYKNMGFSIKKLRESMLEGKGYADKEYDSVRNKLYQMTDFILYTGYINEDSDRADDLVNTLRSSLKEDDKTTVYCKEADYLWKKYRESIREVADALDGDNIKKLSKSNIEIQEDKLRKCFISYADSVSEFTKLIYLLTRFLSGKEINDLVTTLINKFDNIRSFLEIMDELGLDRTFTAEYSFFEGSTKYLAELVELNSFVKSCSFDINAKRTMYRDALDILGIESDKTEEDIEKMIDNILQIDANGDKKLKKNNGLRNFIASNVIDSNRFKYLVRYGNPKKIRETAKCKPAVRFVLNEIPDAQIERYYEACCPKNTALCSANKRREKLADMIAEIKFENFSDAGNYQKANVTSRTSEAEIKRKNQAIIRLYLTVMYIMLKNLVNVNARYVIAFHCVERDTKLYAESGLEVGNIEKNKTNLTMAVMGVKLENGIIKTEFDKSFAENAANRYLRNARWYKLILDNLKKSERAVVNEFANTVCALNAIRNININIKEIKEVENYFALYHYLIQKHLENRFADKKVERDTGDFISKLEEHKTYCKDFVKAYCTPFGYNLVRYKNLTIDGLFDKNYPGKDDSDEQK

B1: target 1 C6G,G17U (mixed)
RNA 1: CACCCGUGCAAAAAUGCAGGGGUCUAAAACUGAGCGGAUAACCUCUCUAUGG
RNA 2: GGGAAUGGAUCCACAUCUACGAAUUCGUACCAUAUAGAGGUUAUCGGCUCACCGAGAUCGGAAGAGCACACGU
B2: target 1 A16C,G17U (mixed)
RNA 1: CACCCGUGCAAAAAUGCAGGGGUCUAAAACUGAGCGGAUAACCUCUCUAUGG
RNA 2: GGGAAUGGAUCCACAUCUACGAAUUCGUACCAUAUCGAGGUUAUCCGCUCACCGAGAUCGGAAGAGCACACGU
B3: target 1 insA 3' of 22,insU 3' of 21 (mixed)
RNA 1: CACCCGUGCAAAAAUGCAGGGGUCUAAAACUGAGCGGAUAACCUCUCUAUGG
RNA 2: GGGAAUGGAUCCACAUCUACGAAUUCGUACACUAUAGAGAGGUUAUCCGCUCACCGAGAUCGGAAGAGCACACGU
B4: target 1 insU 3' of 22,insG 3' of 7 (mixed)
RNA 1: CACCCGUGCAAAAAUGCAGGGGUCUAAAACUGAGCGGAUAACCUCUCUAUGG
RNA 2: GGGAAUGGAUCCACAUCUACGAAUUCGUACUCAUAGAGAGGUUAUCGCGCUCACCGAGAUCGGAAGAGCACACGU
B5: target 1 C6G,U8G (mixed)
RNA 1: CACCCGUGCAAAAAUGCAGGGGUCUAAAACUGAGCGGAUAACCUCUCUAUGG
RNA 2: GGGAAUGGAUCCACAUCUACGAAUUCGUACCAUAGAGAGGUUAGCGGCUCACCGAGAUCGGAAGAGCACACGU
B6: target 1 insU 3' of 21,insG 3' of 4 (mixed)
RNA 1: CACCCGUGCAAAAAUGCAGGGGUCUAAAACUGAGCGGAUAACCUCUCUAUGG
RNA 2: GGGAAUGGAUCCACAUCUACGAAUUCGUACCUAUAGAGAGGUUAUCCGCGUCACCGAGAUCGGAAGAGCACACGU
B7: target 1 insU 3' of 4,insA 3' of 4 (mixed)
RNA 1: CACCCGUGCAAAAAUGCAGGGGUCUAAAACUGAGCGGAUAACCUCUCUAUGG
RNA 2: GGGAAUGGAUCCACAUCUACGAAUUCGUACCAUAGAGAGGUUAUCCGCUAUCACCGAGAUCGGAAGAGCACACGU
B8: target 1 C6A,U19A (mixed)
RNA 1: CACCCGUGCAAAAAUGCAGGGGUCUAAAACUGAGCGGAUAACCUCUCUAUGG
RNA 2: GGGAAUGGAUCCACAUCUACGAAUUCGUACCAAAGAGAGGUUAUCAGCUCACCGAGAUCGGAAGAGCACACGU
B9: target 1 U3C,C7A (mixed)
RNA 1: CACCCGUGCAAAAAUGCAGGGGUCUAAAACUGAGCGGAUAACCUCUCUAUGG
RNA 2: GGGAAUGGAUCCACAUCUACGAAUUCGUACCAUAGAGAGGUUAUACGCCCACCGAGAUCGGAAGAGCACACGU
B10: target 1 insG 3' of 22,insA 3' of 4 (mixed)
RNA 1: CACCCGUGCAAAAAUGCAGGGGUCUAAAACUGAGCGGAUAACCUCUCUAUGG
RNA 2: GGGAAUGGAUCCACAUCUACGAAUUCGUACGCAUAGAGAGGUUAUCCGCAUCACCGAGAUCGGAAGAGCACACGU
B11: target 1 insA 3' of 6,insA 3' of 3 (mixed)
RNA 1: CACCCGUGCAAAAAUGCAGGGGUCUAAAACUGAGCGGAUAACCUCUCUAUGG
RNA 2: GGGAAUGGAUCCACAUCUACGAAUUCGUACCAUAGAGAGGUUAUCCAGCUACACCGAGAUCGGAAGAGCACACGU
B12: target 1 C6A,A16G (mixed)
RNA 1: CACCCGUGCAAAAAUGCAGGGGUCUAAAACUGAGCGGAUAACCUCUCUAUGG
RNA 2: GGGAAUGGAUCCACAUCUACGAAUUCGUACCAUAGGGAGGUUAUCAGCUCACCGAGAUCGGAAGAGCACACGU
B13: target 1 insC 3' of 17,insG 3' of 7 (mixed)
RNA 1: CACCCGUGCAAAAAUGCAGGGGUCUAAAACUGAGCGGAUAACCUCUCUAUGG
RNA 2: GGGAAUGGAUCCACAUCUACGAAUUCGUACCAUAGCAGAGGUUAUCGCGCUCACCGAGAUCGGAAGAGCACACGU
B14: target 1 C2G,A14G (mixed)
RNA 1: CACCCGUGCAAAAAUGCAGGGGUCUAAAACUGAGCGGAUAACCUCUCUAUGG
RNA 2: GGGAAUGGAUCCACAUCUACGAAUUCGUACCAUAGAGGGGUUAUCCGCUGACCGAGAUCGGAAGAGCACACGU
B15: target 1 insC 3' of 15,insG 3' of 4 (mixed)
RNA 1: CACCCGUGCAAAAAUGCAGGGGUCUAAAACUGAGCGGAUAACCUCUCUAUGG
RNA 2: GGGAAUGGAUCCACAUCUACGAAUUCGUACCAUAGAGCAGGUUAUCCGCGUCACCGAGAUCGGAAGAGCACACGU
B16: target 1 G12C,C22A (mixed)
RNA 1: CACCCGUGCAAAAAUGCAGGGGUCUAAAACUGAGCGGAUAACCUCUCUAUGG
RNA 2: GGGAAUGGAUCCACAUCUACGAAUUCGUAACAUAGAGAGCUUAUCCGCUCACCGAGAUCGGAAGAGCACACGU
B17: target 1 insC 3' of 19,insG 3' of 14 (mixed)
RNA 1: CACCCGUGCAAAAAUGCAGGGGUCUAAAACUGAGCGGAUAACCUCUCUAUGG
RNA 2: GGGAAUGGAUCCACAUCUACGAAUUCGUACCAUCAGAGAGGGUUAUCCGCUCACCGAGAUCGGAAGAGCACACGU
B18: target 1 insU 3' of 18,insC 3' of 18 (mixed)
RNA 1: CACCCGUGCAAAAAUGCAGGGGUCUAAAACUGAGCGGAUAACCUCUCUAUGG
RNA 2: GGGAAUGGAUCCACAUCUACGAAUUCGUACCAUAUCGAGAGGUUAUCCGCUCACCGAGAUCGGAAGAGCACACGU
B19: target 1 insG 3' of 14,insA 3' of 8 (mixed)
RNA 1: CACCCGUGCAAAAAUGCAGGGGUCUAAAACUGAGCGGAUAACCUCUCUAUGG
RNA 2: GGGAAUGGAUCCACAUCUACGAAUUCGUACCAUAGAGAGGGUUAUACCGCUCACCGAGAUCGGAAGAGCACACGU
B20: target 1 insA 3' of 5,insU 3' of 5 (mixed)
RNA 1: CACCCGUGCAAAAAUGCAGGGGUCUAAAACUGAGCGGAUAACCUCUCUAUGG
RNA 2: GGGAAUGGAUCCACAUCUACGAAUUCGUACCAUAGAGAGGUUAUCCGAUCUCACCGAGAUCGGAAGAGCACACGU
B21: target 1 C2U,A20U (mixed)
RNA 1: CACCCGUGCAAAAAUGCAGGGGUCUAAAACUGAGCGGAUAACCUCUCUAUGG
RNA 2: GGGAAUGGAUCCACAUCUACGAAUUCGUACCUUAGAGAGGUUAUCCGCUUACCGAGAUCGGAAGAGCACACGU
B22: target 1 C2A,G12A (mixed)
RNA 1: CACCCGUGCAAAAAUGCAGGGGUCUAAAACUGAGCGGAUAACCUCUCUAUGG
RNA 2: GGGAAUGGAUCCACAUCUACGAAUUCGUACCAUAGAGAGAUUAUCCGCUAACCGAGAUCGGAAGAGCACACGU
B23: target 1 insU 3' of 16,insC 3' of 16 (mixed)
RNA 1: CACCCGUGCAAAAAUGCAGGGGUCUAAAACUGAGCGGAUAACCUCUCUAUGG
RNA 2: GGGAAUGGAUCCACAUCUACGAAUUCGUACCAUAGAUCGAGGUUAUCCGCUCACCGAGAUCGGAAGAGCACACGU

This data set has as its target T1, EsCas13d, nuclease-dead. The data set is described as follows: crRNA (strand 1, pre-loaded); Mg2+; 40 mM Tris-HCl pH 7.5, 150 mM NaCl, 6 mM MgCl2, 1 mM DTT, 0.1% Tween-20, 0.2 mg/ml BSA; 25 C; 10 min per concentration, then washed. Particulars: tags: His6-TwinStrep-SUMO cleaved; N-terminal SNAP kept (SNAP-Surface 488); label: 3' end held by stalled T7 RNA polymerase.
Regarding B1, the Kd came to 31.4 ± 2.7 nM.
In the case of B2, the Kd was 28 ± 1.4 nM.
The same measure for B3: 6.09 ± 0.28 nM.
The same measure for B4: 22.8 ± 1.6 nM; for B5: 12.8 ± 0.6 nM; for B6: 24.9 ± 2.8 nM.
The same measure for B7: 9.1 ± 0.5 nM; for B8: 29.8 ± 1.7 nM; for B9: 8 ± 0.4 nM.
B10 yielded a Kd of 17.9 ± 2.6 nM.
The same measure for B11: 21.5 ± 2.2 nM.
The same measure for B12: 28.8 ± 1.4 nM.
The same measure for B13: 42 ± 7 nM; for B14: 15.6 ± 1.8 nM; for B15: 10.7 ± 0.6 nM.
In turn, B16 showed a Kd of 25 ± 1.1 nM.
The same measure for B17: 72 ± 11 nM.
B18 came in with an equilibrium dissociation constant (Kd) of 84 ± 9 nM.
Turning to B19, binding was put at a Kd of 10.6 ± 0.4 nM.
Then B20, with 6.6 ± 0.6 nM.
The same measure for B21: 34 ± 4 nM; for B22: 4.57 ± 0.22 nM; for B23: 47 ± 4 nM.

Usually Kd stands for a measure of binding affinity in units of concentration. Low values mean tighter binding, high ones weaker binding.

The record behind these values is paper PMC10786891, “Massively parallel profiling of RNA-targeting CRISPR-Cas13d”.
